Test: soluble on expression in E. coli; label from the status in PepcDB or PDB records

Sequence	soluble on expression in E. coli
MKKRILSAVLVSGVTLSAAASVHAEDYDSQIAATNNAISNLASQQEAAQAQVATIQSQVSTLRTQKTELEAKNAELEKVSADLESEIQELSSKIVARQDSLAKQARSAQQNNTATSYINSILNSKSISEAITRITAISKVVTANNDLLTKQESDQKELAAKQEENQAAINTIAANKSELETTEAGLTTQQAELEAAQVTLAAELATAQNEKTSLVSAKSTAESVAASTAASVAQSQAIAESEATAQVVASSEAATSVASSEVAATSEAVAQPSETPVSETSTASEAAQEPASSETSEVQPESAAPAVSEAPASVAPVATSEAAPATSEAPASVAPVATSEAAPAVSEAPAPAAETHKVSAASTPNTYPVGQCTWGVKSLAPWAGNNWGNAKNWIASAQAAGHSVGTTPVAGAIAVWPNDGGGYGHVAYVTSASGANSIQVMESNYAGNMSISNYRGTFDPTSSAHGGSVFYIYPLEHHHHHH	soluble
MGSDKIHHHHHHANVEVQKENFVFSIKGTDTLSLDKYELPSISPASKKPVMIFAFGGGFKGGDKADKGYIPYFEFLARNGFVVVSTDYRTTLKNLDPSKVSSPMDFIAALQHAIDTAVEDFYDATGFVINQSSDWNIDVEQIVASGSSAGAITVLQAEYDLCNGHELAKRLPAGFNYAGVISYAGAVSGVLPPHWEKMPCPIMLFHGDADKTVPFEQAAMENLGGLWGSSAVAKSLENLQASYYFYKVENAGHEISGLPMSRNQYDIMSFLSRQVLGDENLAITTDERVPGDTIVRKDFTVQDYILDNLR	not soluble
MSEIALEAWGEHEALLLKPPRSPLSIPPPKPRTAVLFPRREGFYTELGGYLPEVRLRFETYGTLSRRRDNAVLVFHALTGSAHLAGTYDEETFRSLSPLEQAFGREGWWDSLVGPGRILDPALYYVVSANHLGSCYGSTGPLSLDPRTGRPYGRDFPPLTIRDLARAQARLLDHLGVEKAIVIGGSLGGMVALEFALMYPERVKKLVVLAAPARHGPWARAFNHLSRQAILQDPEYQKGNPAPKGMALARGIAMMSYRAPEGFEARWGAEPELGETYLDYQGEKFLRRFHAESYLVLSRAMDTHDVGRGRGGVEEALKRLRAIPSLFVGIDTDLLYPAWEVRQAAKAAGARYREIKSPHGHDAFLIETDQVEEILDAFLP	soluble
GPGSMGTRQSSASAAPAPQASNGALHLNKLNVPTPPRIAATESPFGSNTPLAKTPTPTAATATATAAVSGEHAKRFQEALRVDSVDMALLRELSWQGCPVALRYEAWMFLTGCWTAQAATRQATVLRRRVEYAAYIHSSYGIVDWDAVCAMVDSGVDTAVHRSTLKLLEHTADAPQVAPPSGTSHSLLRVAPLTTGDSTAMAAKEAAAALPPSLSQRPDGRQSASLPLEDVRSRLPQNTSGSDAPQPSQLSPPQSADIRSASPSLGIVPAPSDSSFRASASAGFTDTAGTGPASHPSIFAPPLPGFATLGLSNVVAATAAPPAASGGAGGATGHQLSASTMLGSKELQTLKQIRKDIPRMSGGHCYLRHPRVQGSIERILFIWSLRHPACGYVQGMNDLVVPFMGVVLGYRFCPTHSVTELHAYTEDIFDDLWSVSAVSVTQWINEVEADVYWMTSYLLNTMQDNYTSSHAGITSMMRHLAAVVQVADPPLYHRLVNVLQLHFEQFSFRWMNCLLIRELTETQSLRLLDAYLSDEERRWSVTHVYVCAALLLRWGSQLMAFCEDYISVMKLLQEPPTEQLSLRDMQDVLSEGFVLQNLYEASLKRLSTTAE	not soluble
MSLLSAFDTTAQRLGTASQNIEKDFWVCWTLDALFNGLSERGPRLLFKGGTSLSKGFGLINRFSEDIDVTVFRDDIGEPATIEELNVLSRNKRRARLDAIKEACQAYINGPLRAELTAILQKRLQAAGLSAGDARVEADGADSDGQTLLIWYPAATPRSDYVRAAIKIESGAKSALDPNSEVPIKAYVDDDLPALDLTVPAVRTVDPERTFWDKVVILHGLRRWFDKRGELRGGGQRVSRHYYDLHRLTAAPVGAAAIDDAALGADCVAHARMFFNRPDYDLATAAPGSFALAPHDEMIEQLRTDYRAMQGMIFGDPPSFEAVLKSINSLETQLNKDIANEGGPTREGHHHHHH	soluble
MAEEQARHVKNGLECIRALKAEPIGSLAIEEAMAAWSEISDNPGQERATCREEKAGSSGLSKPCLSAIGSTEGGAPRIRGQGPGESDDDAETLGIPPRNLQASSTGLQCYYVYDHSGEAVKGIQDADSIMVQSGLDGDSTLSGGDNESENSDVDIGEPDTEGYAITDRGSAPISMGFRASDVETAEGGEIHELLRLQSRGNNFPKLGKTLNVPPPPDPGRASTSGTPIKKGHRREISLIWNGDRVFIDRWCNPMCSKVTLGTIRARCTCGECPRVCEQCRTDTGVDTRIWYHNLPEIPE	not soluble
MQGYHHPLATNHQTQYGTVGQALHIARKLLPFIPDNAGILIVPCCRGGSAFTAGSEGTYSERHGASHDACRWGTDTPLYQDLVSRTRAALAKNPQNKFLGVCWMQGEFDLMTSDYASHPQHFNHMVEAFRRDLKQYHSQLNNITDAPWFCGDTTWYWKENFPHSYEAIYGNYQNNVLANIIFVDFQQQGERGLTNAPDEDPDDLSTGYYGSAYRSPENWTTALRSSHFSTAARRGIISDRFVEAILQFWRER	not soluble
MKPLFGKVGVFGVGLLGGSVALGIKERFLAEEVHAYDQDPMALEKVLFLGVADRVHTEVGPWVGELDLGILAAPVGALAELGKALAPWAHPESLWTDVGSVKAKVVAALEGLLPHYLGGHPMAGSERAGVENAHAGLLQNAVWVLTPTERTSPRAREGVRGLVEALGAYPLEMPPGRHDELVARVSHLPYLLAVALNRMVAQSPHRDLLMFLAAGGFRDLTRVASGSPRMSRDMVVENKEALKEAIEELREVLLELEGLLDEPEGLLRAAEEAKRTRDSLPIVRRSLLPEMHDLVVQVPDRPGEIARIATALGEAGVNIKDIEVLTIREAAGALRLSFATREERERARRVLQEAGYRLP	soluble
MKTFIKGLVLSAVVASSQVYAEQTLNVYAWGGYLPEKSLKAFEQQEGVTINYSTFENNESMYTKLKLLKGTGYDVVFASAYFIEKMGREGLLAEIDHNQIPNMKDAMPTVLGLAHDPQNKFSLPYIWGITGLYYNSSTLPNGITKWADLWDKQYEQQVMLIDDIRDVFGMALKLNGFSINTKNEEEIKKAYESLVALKKNVLLYNSDAPHVPYVSGEATLGMQWNGNAYQGQVEMPELKFVMPEEGAVLWMDNFTIPSGSKNIPLAHKFINFMYQPENQAEIVQSLGYASATKGGRALLPAELRDNPTIFPSDEDMKKGEFINDVGPETLAIYEKYWQRLRNQ	not soluble
MGSDKIHHHHHHMAKSKSTYSCTECGGQTLKWQGQCPHCQAWNTLVEAMSEKAAARFTPVSESREVQSLSEVEAEEEQRYSTGLLEFDRVLGGGLVQGGVVLLGGDPGIGKSTLLLQALCNMSLLPLARNVLYVSGEESARQVAMRAKRMGVDAKALHLLAEIRLERIQEVLAERKPDVAVIDSIQTVYSDALQSAPGSVAQVRECAAQLTRLAKASGTGMILVGHVTKEGALAGPRVLEHMVDTVLYFEGDTHSSFRLIRAFKNRFGAVNELGVFAMTEKGLREVSNPSALFLSHHGGQVPGSCIMVTQEGTRPLLVEIQALVDEAHSPNARRLSVGLEQNRLAMLLAVLHRHAGIACFDQDVFVNAVGGVKITEPGADLAVLLAIVSSLKNRPLPEKTVVFGEVGLAGEVRPVQRGLERLREAAKLGFVQAIVPKANKPKATPPGIEIIAVERVEEAVARMR	not soluble
MSPDQKHRYKLYYVNMRGRAEPIRLVFHFLGVDFEDYRMDKGDFTGAMKDKAPMKQLPFIEIDGGKTTLCQTVSICRYLAKSIQPDRWFGGATKTDSAKVDMMADGFADLFQLAAMAKYAPDPIKDSMMGTYKESIGPKLENMQDLLKKSKGEYFVGKSIHWCDVYILGVLQALDESDDGVFDNLPELREYYLRMRNLPELKEYIDANWPETKYKE	not soluble
MKLTLWTYEGPPHVGAMRVATAMKDLQLVLHGPQGATYADLLFTMIERRNARPPVSFSTFEASHMGTDTAILLKDALAAAHARYKPQAMAVALTCTAELLQDDPNGISRALNLPVPVVPLELPSYSRKENYGADETFRALVRALAVPMERTPEVTCNLLGATALGFRHRDDVAEVTKLLATMGIKVNVCAPLGASPDDLRKLGQAHFNVLMYPETGESAARHLERACKQPFTKIVPIGVGATRDFLAEVSKITGLPVVTDESTLRQPWWSASVDSTYLTGKRVFIFGDGTHVIAAARIAAKEVGFEVVGMGCYNREMARPLRTAAAEYGLEALITDDYLEVEKAIEAAAPELILGTQMERNIAKKLGLPCAVISAPVHVQDFPARYAPQMGFEGANVLFDTWVHPLVMGLEEHLLTMFREDFEFHDAAGASHHGGKAVAREESPVAPADLAPAATSDTPAAPSPVVVTQASGEIRWMPEAERELRKIPFFVRGKAKRNTELYAAHKGVCDITVETLYEAKAHYAR	soluble
PVTNMAELDAMIARVKKAQEEFATYSQEQVDKIFRAASLAANQARIPLAQQAVEESGMGIVEDKVIKNHFASEFIYNKYKDEQTCGILEEDDNLGTMTIAEPVGIICGIVPTTNPTSTAIFKSLISLKTRNGIIFSPHPRAKNSTNDAAKLVLDAAVAAGAPKDIIGWIDQPSVELSNALMKHDDIALILATGGPGMVKAAYSSGKPAIGVGAGNVPVVIDETADIKRAVASVLMSKTFDNGVVCASE	not soluble
VKPKGAFKAFTGEGQKLGSTAPQVLNTSSPAQQAENEAKASSSILINEAEPTTNIQIRLADGGRLVQKFNHSHRISDIRLFIVDARPAMAATSFVLMTTFPNKELADENQTLKEANLLNAVIVQRLT	soluble
SDPAGASVASAIGGEGEKFAVGNIYSVKVITGDEFRGIVMAYDPIPNFVFFEEGTKPRPGHLKNTRMVNASFITGLSYLGKTEDPFDSDNFSVDLNGLRAKEALAIRQAEADAERMGVGVTAEAQSIFDALSKTLPVQWENSDILVMKEVRVRSPYLSDCVFGGTDAANNRVKKVLELERRRLQLFGT	soluble
MKRPNFLFVMTDTQATNMVGCYSGKPLNTQNIDSLAAEGIRFNSAYTCSPVCTPARAGLFTGIYANQSGPWTNNVAPGKNISTMGRYFKDAGYHTCYIGKWHLDGHDYFGTGECPPEWDADYWFDGANYLSELTEKEISLWRNGLNSVEDLQANHIDETFTWAHRISNRAVDFLQQPARADEPFLMVVSYDEPHHPFTCPVEYLEKYADFYYELGEKAQDDLANKPEHHRLWAQAMPSPVGDDGLYHHPLYFACNDFVDDQIGRVINALTPEQRENTWVIYTSDHGEMMGAHKLISKGAAMYDDITRIPLIIRSPQGERRQVDTPVSHIDLLPTMMALADIEKPEILPGENILAVKEPRGVMVEFNRYEIEHDSFGGFIPVRCWVTDDFKLVLNLFTSDELYDRRNDPNEMHNLIDDIRFADVRSKMHDALLDYMDKIRDPFRSYQWSLRPWRKDARPRWMGAFRPRPQDGYSPVVRDYDTGLPTQGVKVEEKKQKF	soluble
MGSDKIHHHHHHMLKFGTAGIPINAKNTESALEYLKEIKLDAMELEFVRGVNLKAEKAESLAKNLKITLSAHAPYYINLNAKEPEKIESSIKRIVDSAKIISIFNKKNSENKNVVFHSGFYLKQDKDLVYEKIKVNIQKILKIMDENKINAILRPETTGKISQFGSIDELIQLSTEIDIMPCIDFSHVYARSLGKINDYDSFSNILSKLENNLGKKGIKDMHIHISGIDFGNGGEKKHFPILNSEFNYMAVLKALKDFECSGTVICESPKLEYDAVILKKNYEEL	not soluble
MKAKPLSQDPGSKRYAYRINKEENRKELKHVKINESSLVQEGQKIDLPKKRYYRQRAHSNPFSDHQLEYPVSPQDMDWSKLYPYYKNAENGQMTKKVTIADIGCGFGGLMIDLSPAFPEDLILGMEIRVQVTNYVEDRIIALRNNTASKHGFQNINVLRGNAMKFLPNFFEKGQLSKMFFCFPDPHFKQRKHKARIITNTLLSEYAYVLKEGGVVYTITDVKDLHEWMVKHLEEHPLFERLSKEWEENDECVKIMRNATEEGKKVERKKGDKFVACFTRLPTPAIL	soluble
